This series concerns the target T1, retinoblastoma protein (RB) (Homo sapiens, UniProt P06400 1-928).
T1 sequence: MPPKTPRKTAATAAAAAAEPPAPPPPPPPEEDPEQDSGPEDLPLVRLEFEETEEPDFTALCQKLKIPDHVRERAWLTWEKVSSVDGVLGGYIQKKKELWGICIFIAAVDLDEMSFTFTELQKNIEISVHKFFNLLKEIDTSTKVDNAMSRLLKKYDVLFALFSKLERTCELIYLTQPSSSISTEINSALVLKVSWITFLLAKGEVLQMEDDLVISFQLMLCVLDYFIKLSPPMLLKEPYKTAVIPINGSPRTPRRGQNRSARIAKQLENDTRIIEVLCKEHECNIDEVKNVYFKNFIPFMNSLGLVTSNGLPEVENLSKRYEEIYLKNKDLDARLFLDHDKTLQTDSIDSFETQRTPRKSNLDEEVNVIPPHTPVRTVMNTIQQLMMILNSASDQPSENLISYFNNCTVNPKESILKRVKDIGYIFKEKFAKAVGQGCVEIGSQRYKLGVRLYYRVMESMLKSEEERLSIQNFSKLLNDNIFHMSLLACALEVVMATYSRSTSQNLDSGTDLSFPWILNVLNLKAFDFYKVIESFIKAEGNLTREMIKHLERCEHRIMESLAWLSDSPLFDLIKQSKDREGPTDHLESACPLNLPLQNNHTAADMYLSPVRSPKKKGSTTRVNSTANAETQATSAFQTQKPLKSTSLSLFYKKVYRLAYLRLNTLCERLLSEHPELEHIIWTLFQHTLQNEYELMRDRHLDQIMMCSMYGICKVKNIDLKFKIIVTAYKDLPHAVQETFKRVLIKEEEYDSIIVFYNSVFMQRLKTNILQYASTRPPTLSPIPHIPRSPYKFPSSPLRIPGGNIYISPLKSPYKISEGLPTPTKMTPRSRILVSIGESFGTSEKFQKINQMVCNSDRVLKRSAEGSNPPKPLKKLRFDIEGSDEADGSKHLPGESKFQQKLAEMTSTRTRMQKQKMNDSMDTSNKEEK
Nature of the series: ELONA.

The values that follow come from article PMC8159449.

One may read the Kd as the concentration at which binding is half-saturated. High values mean weaker binding, low ones tighter binding.

B1: 18E16 (structured_RNA)
RNA: GGAGGGUGGAGGGAAGGG
For the molecule B1, the Kd was determined as 5.1 ± 0.7 nM.
